Test results from patent publication US20240026024A1 (SHANGHAI HUAOTA BIOPHARMACEUTICAL, published 2024).
Residue numbers refer to the chain shown, from its start.

T1: human CD73 on the cell surface (human, UniProt P21589 27-549)
T1 sequence: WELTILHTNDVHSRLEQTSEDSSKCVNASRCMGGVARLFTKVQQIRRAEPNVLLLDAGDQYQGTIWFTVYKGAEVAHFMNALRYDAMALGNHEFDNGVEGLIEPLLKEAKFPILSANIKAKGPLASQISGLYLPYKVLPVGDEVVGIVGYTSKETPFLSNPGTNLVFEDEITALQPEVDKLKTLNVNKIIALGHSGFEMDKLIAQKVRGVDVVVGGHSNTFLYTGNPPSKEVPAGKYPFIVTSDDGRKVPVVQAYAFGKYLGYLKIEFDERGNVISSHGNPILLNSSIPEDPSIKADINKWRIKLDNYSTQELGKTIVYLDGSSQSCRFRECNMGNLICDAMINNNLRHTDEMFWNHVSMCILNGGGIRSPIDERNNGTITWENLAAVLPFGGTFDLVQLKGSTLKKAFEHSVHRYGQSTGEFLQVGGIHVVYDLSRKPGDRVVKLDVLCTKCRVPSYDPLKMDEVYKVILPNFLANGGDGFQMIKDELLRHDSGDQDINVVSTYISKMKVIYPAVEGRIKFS

T2: rat CD73 (Novoprotein, Cat No. CB16) (rat, UniProt P21588 29-551, limits assumed)
T2 construct: Bought protein
T2 sequence (looked up): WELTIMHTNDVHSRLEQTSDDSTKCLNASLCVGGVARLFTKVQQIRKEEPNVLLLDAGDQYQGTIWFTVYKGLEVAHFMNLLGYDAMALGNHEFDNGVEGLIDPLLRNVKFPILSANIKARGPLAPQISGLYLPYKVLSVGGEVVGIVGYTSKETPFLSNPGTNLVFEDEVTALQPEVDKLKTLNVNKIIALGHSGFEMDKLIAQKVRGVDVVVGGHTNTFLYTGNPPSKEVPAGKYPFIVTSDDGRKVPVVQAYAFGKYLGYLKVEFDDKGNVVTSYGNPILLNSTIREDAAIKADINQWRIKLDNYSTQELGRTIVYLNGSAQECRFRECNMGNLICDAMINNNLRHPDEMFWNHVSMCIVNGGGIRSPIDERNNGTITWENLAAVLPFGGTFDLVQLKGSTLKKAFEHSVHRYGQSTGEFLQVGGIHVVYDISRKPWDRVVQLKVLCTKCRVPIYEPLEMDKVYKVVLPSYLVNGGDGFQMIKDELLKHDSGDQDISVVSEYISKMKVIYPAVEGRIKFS

T3: monkey CD73 (Novoprotein, Cat No. C121) (monkey, UniProt A0A2K5V5U7 27-549)
T3 construct: Bought protein; also called monkey CD73 protein
T3 sequence: T1 sequence with M199T, T350A, V466I

B1: 900581 (antibody, human IgG1, V domains shown)
VH: EVQLVESGGGLVKPGGSLKLSCAASGFTFSKYAMSWVRQSPEKRLEWVAEISSGGGYINYPDTVTGRFTISRDNAKNTLYLEMSSLRSGDTAMYYCARAIYYYGSSYNYYAMDYWGQGTSVTVSS
VL: DIVMTQSHKFMSTSVGDRVSITCKASQDVGTAEAWYQQKPGQSPKLLIYWASTRHTGVPDRFTGSGSGTDFTLTIGNVQSEDLADYFCQQYSSYPLTFGGGTKLEIK
B2: 900697 (antibody, V domains shown)
VH: QVQLVESGGGLVKPGGSLRLSCAASGFTFSKYAMSWVRQAPGKGLEWVAEISSGGGYINYADSVTGRFTISRDNAKNSLYLQMNSLRAEDTAVYYCARAIYYYGSSYNYYAMDYWGQGTTVTVSS
VL: DIQMTQSPSSLSASVGDRVTITCRASQDVGTAEAWYQQKPGKAPKLLIYWASTLQSGVPSRFSGSGSGTDFTLTISSLQPEDFATYYCQQYSSYPLTFGQGTKLEIK
notes: Constant regions are not restated
B3: 900698 (antibody, V domains shown)
VH: B2 VH with V37I, T65K
VL: B2 VL with L54R, Q55H, S56T
notes: as for B2
B4: 900695 (antibody, V domains shown)
VH: B2 VH
VL: B2 VL with L54R, Q55H, S56T
notes: as for B2
B5: 900696 (antibody, V domains shown)
VH: B2 VH with V37I, T65K
VL: B2 VL
notes: as for B2

target: T1, human CD73 on the cell surface; assay: cell-based or functional assay

Row | Binder | EC50(µg/mL), inhibition of enzyme activity of CD73 on CHOK1-huCD73-3F4 cells [µg/mL]
1 | B1 | 0.944

target: T1, human CD73 on the cell surface; assay: cell-based or functional assay; remark: another data set of the same source

Row | Binder | EC50(µg/mL), inhibition of enzyme activity of CD73 on CHOK1-huCD73-3F4 cells [µg/mL]
2 | B1 | 1.85
3 | B2 | 1.97
4 | B3 | 1.43

target: T2, rat CD73 (Novoprotein, Cat No. CB16); assay: SPR (Biacore T200), antibody captured on protein A chip
Experimental: (§1) The temperatures of the sample chamber and flow path were set at 25° C. The protein A chips separately captured the antigen-binding proteins as ligands, which were immobilized at about 100 RU. […] Ten mM Glycine, pH 1.5, was regenerated for 60 s at a flow rate of […] for multiple cycle kinetic detection. The binding rate constant (ka), dissociation rate constant (kd) and dissociation equilibrium rate constant (KD) were fitted using the Fit local mode of a 1:1 binding model.

Row | Binder | binding result
5 | B1 | no binding (tested: up to 50 nM analyte)
6 | B4 | no binding (tested: up to 50 nM analyte)
7 | B2 | no binding (tested: up to 50 nM analyte)
8 | B3 | no binding (tested: up to 50 nM analyte)
9 | B5 | no binding (tested: up to 50 nM analyte)

target: T1, human CD73 on the cell surface; assay: flow cytometry on CHOK1-huCD73-3F4 cells, PE anti-human Fc
Experimental: All the antigen-binding proteins were diluted to 30 μg/ml with PBS solution containing 1% BSA (1% BSA/PBS), diluted at 3-fold into 11 gradients and then added to a 96-well U-shaped plate at 20 μL/well, and negative control (1% BSA/PBS was added only) was set up simultaneously. The suspension of human CD73-expressing cells (CHOK1-huCD73-3F4, Huabo Biopharm) in the logarithmic growth phase were collected and centrifuged at 1000 rpm for 5 min, and the culture medium was discarded; then the cells were resuspended with 1% BSA/PBS to a viable cell density of 1×10⁶/mL, and then added into the 96-well U-shaped plate already added with anti-CD73 antigen-binding protein at 20 μL (2×10⁴ cells)/well for reaction at room temperature for 30 min. […] After the reaction, the cells in the 96-well U-shaped plate were resuspended with 1% BSA/PBS and centrifuged at 300 g for 3 min and the supernatant was discarded; after washing in this manner 3 times, and the cells were finally resuspended with 1% BSA/PBS at 100 μL/well, and the fluorescence intensity of the PE channel was measured with a flow cytometer (BD, #Canto II).

Row | Binder | EC50 [µg/mL]
10 | B1 | 0.426

target: T3, monkey CD73 (Novoprotein, Cat No. C121); assay: SPR (Biacore T200), antibody captured on protein A chip, CD73 as analyte, 1:1 model
Experimental: as §1

Row | Binder | Kd [nM] | koff [s⁻¹] | kon [M⁻¹ s⁻¹]
11 | B1 | 1.05 | 0.000358 | 349000
12 | B4 | 0.822 | 0.000148 | 180000
13 | B2 | 2.13 | 0.000137 | 64100
14 | B3 | 1.41 | 0.000115 | 108000
15 | B5 | 0.604 | 0.000214 | 354000
